Experimental data taken from patent publication US20260258125A1 (NONA BIOSCIENCES SUZHOU, published 2026).
Changes are numbered by the printed parent chain. Values belong to the binder of their own block, whether it stands above or below them.

Experiments:
[1] = target: T1, recombinant human CEACAM6 Fc-tag protein (human, UniProt P40199 35-320, limits assumed); test: Octet (BLI), antibody on AHC sensor, antigen in solution
T1 construct: also called huCEACAM6 (Octet); not shown: Fc tag
T1 sequence (looked up): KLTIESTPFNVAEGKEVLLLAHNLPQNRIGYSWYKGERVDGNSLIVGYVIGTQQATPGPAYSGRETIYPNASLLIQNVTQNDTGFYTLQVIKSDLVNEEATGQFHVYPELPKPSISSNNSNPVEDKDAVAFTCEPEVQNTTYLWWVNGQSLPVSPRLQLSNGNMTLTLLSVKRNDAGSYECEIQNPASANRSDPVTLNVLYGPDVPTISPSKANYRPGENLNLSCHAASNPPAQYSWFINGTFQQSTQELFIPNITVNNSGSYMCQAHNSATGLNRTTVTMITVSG
Experimental: (§1) Binding kinetics of recombinant anti-CEACAM5/6 antibodies to CEACAM5 and CEACAM6 were analyzed by Octet. In Octet analysis, recombinant human CEACAM5 Fc-tag protein (#Uniprot P06731) or CEACAM6 Fc-tag protein (Uniprot P40199) was serially diluted with 1×kinetic buffer (Fortebio). Anti-CEACAM5/6 dual-binding antibodies were diluted to 5 μg/mL. Then diluted antibodies, antigen and regeneration buffer (10 mM glycine pH 1.75) were added to 96-well plates (Greiner). Rate constants for association and dissociation were measured using AHC sensor (Fortebio). The sensor surface was regenerated after each binding experiment with regeneration buffer. The traces were processed using ForteBio Data Analysis Software (version 8.0, Pall ForteBio, CA, USA).

[2] = target: T2, recombinant human CEACAM5 Fc-tag protein (human, UniProt P06731 35-685, limits assumed); test: as above
T2 construct: also called huCEACAM5 (Octet); huCEACAM5-Fc; not shown: Fc tag
T2 sequence (looked up): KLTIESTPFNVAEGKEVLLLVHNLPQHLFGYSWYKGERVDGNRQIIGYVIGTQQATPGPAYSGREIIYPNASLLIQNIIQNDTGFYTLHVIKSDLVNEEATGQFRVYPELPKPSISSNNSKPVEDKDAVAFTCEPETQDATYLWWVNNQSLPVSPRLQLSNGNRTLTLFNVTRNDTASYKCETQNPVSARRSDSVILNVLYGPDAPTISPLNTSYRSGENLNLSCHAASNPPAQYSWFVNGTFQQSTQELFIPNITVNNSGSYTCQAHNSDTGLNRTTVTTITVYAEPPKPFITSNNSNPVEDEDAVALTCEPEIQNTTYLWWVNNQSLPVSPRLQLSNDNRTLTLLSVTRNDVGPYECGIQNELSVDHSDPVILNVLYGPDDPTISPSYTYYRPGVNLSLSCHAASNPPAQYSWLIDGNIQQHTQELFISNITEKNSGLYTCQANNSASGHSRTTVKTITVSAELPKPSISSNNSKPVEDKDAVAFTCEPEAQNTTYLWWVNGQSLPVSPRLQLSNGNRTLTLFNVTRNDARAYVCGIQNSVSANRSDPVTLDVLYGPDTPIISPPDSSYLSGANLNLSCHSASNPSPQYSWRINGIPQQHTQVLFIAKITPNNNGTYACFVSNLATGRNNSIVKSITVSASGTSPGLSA
Experimental: as §1

[3] = target: T3, recombinant CEACAM5-his protein, biotinylated (UniProt P06731 35-685, limits assumed, biotinylated (sites not given)); test: Octet epitope binning on biotinylated CEACAM5-his; competitor PR304169
T3 construct: not shown: His tag
T3 sequence (looked up): T2 sequence (looked up)
Experimental: (§2) In epitope binning analysis using Octet, antibodies were tested against other antibodies in a pairwise fashion to see if antibodies block one another's binding to the epitope of the antigen. The first and second antibodies was diluted into same concentration which could saturate the binding of immobilized antigens. Recombinant CEACAM5-his protein was biotinylationed and was then used as antigen and immobilized to SA sensor. The first antibody was associated with antigen and then followed by the second antibody. Data were analyzed by ForteBio Data Analysis Software (version 8.0, Pall ForteBio). The rate of RU values of the same antibody as 2nd antibody to as 1st antibody was calculated as the co-binding rate of this antibody to other antibodies.

[4] = target: T3, recombinant CEACAM5-his protein, …; test: Octet epitope binning on biotinylated CEACAM5-his; competitor PR303561
Experimental: as §2

[5] = target: T4, cynomolgus CEACAM5 on CHO-K1 cells (CHOK1-cyno CEACAM5 cells) (cynomolgus monkey); test: flow cytometry on CHOK1-cyno CEACAM5 cells
T4 construct: whole, on cells; also called CHOK1-cynoCECAM5
Experimental: Binding of recombinant anti-CEACAM5/6 dual-binding antibodies against human or cynomolgus CEACAM5 or CEACAM6 stable cells were detected by flow cytometry. […] Anti-CEACAM5/6 dual-binding antibodies were incubated with the stable cell lines. Anti-CEACAM5/6 dual-binding antibodies were serially diluted in staining buffer (PBS containing 2% FBS). 50 μL of diluted antibody solution was added to 50 μL of cell suspension containing 1-2×10⁵ cells and incubated at 4° C. for 1 hour. […] After 1-hour incubation at 4° C., cells were washed twice and run on a flow cytometer. […] The results were shown in FIGS. 8-10 and Tables 6 below.

- Kd [1]: 19.9 nM
- Kd [2]: 5.48 nM
- co-binding rate [3]: 1.02%
- co-binding rate [4]: 102%
- EC50 [5]: 2.51 nM
B1: PR304294 (antibody, human IgG1, kappa, V domains shown)
VH: EVQLLESGGGLVQPGGSLRLSCAASGFTFSSYAMSWVRQAPGKGLEWVSAISGTTYNTYYAGSVKGRFTISRDNSKNTLYLQMNSLRAEDTAVYYCAKGISVAGYYYYGMDVWGQGTTVTVSS
VL: EIVMTQSPATLSVSPGERATLSCRASQSVISNLAWYQQKPGQAPRLLIYGASTRATGIPARFSGSGSGTEFTLTISSLQSEDFAVYYCHQYNNWPLTFGGGTKVEIKR
notes: Recombinant full antibody

- co-binding rate [3]: 20.4%
- co-binding rate [4]: 101%
- EC50 [5]: 14.9 nM
B2: PR304171 (antibody, human IgG1, kappa, V domains shown)
VH: not shown
VL: B1 VL with S28N, Y36H, G50T, A51T, H89Q
notes: Recombinant full antibody
